The series can be described thus: label from the status in PepcDB records.

Consider “MDRLNQIQIILVETSLSANIGSAARAMKTMGLSNLRLVRPKNPLDEQATALAAGAKNILDNAQIFNTFDAAIADCQLIIGTSARLRHLQSTLVEPRECGKLIINNTNQHKIALIFGRERIGLTNEELLKCHYHLNVPTNPEYESLNLAMAVQLACYEIRMAWLELQKKPIIQPLTEEKNYPTAAAMAHFFDHTERL”, for which the protein production result is on record as “not failed”.
Then “MDRNEIGLNAGKVWQLLSNNEKWGYGTLKRKSGLKDKELGAALGWLSRENKIEFDQCDEELYVYLCVNVYIG”, with “failed”; and “MDRNGANMLDGRVESDAKGSFRKDYTKMENNNNGANISDGIYRIIRSFKSFSHFFIRYEEETKEREAEMEIGFPTDVKHLSHIGVDGTMTTFDNTSSSFPFSGFHLTGTVV”, with “failed”.
In the case of “MDRNSKIVVGLVAVLSIAGLVLSLAGLLEGGEGTIAIIPVHGAIAYDTAGFSDGVDPDDIKELIAEANSDPSVKAIVLDINSPGGTPVASEELMDAINKSEKPVVSWISDSGTSGAYLAASASDRIVASPSAWVGSIGVILDLTDLSQMYRQMGINKYAIKAGEYKDMGADYRMITDEERQMLQSMVNEEYDYFIKTVAANRNLSVSYVKSLAEGRIFTGRQAVRNRLVDFTGGKDYAVEVAAKLAGVKNYNTITLEPPSGFLRVLSSMFSRLGFASGNTTEELQLH” it was “failed”.
As to “MDRRDAMGLSGSGSYYIHRGLSGSGPPTFHGSPQQQQGLRHLPNQNSPFGSGSTGFGSPSLHGDPSLATAAGGAGALPHHIGVNMIAPPPPPSETPMKRKRGRPRKYGQDGSVSLALSSSSVSTITPNNSNKRGRGRPPGSGKKQRMASVGELMPSSSGMSFTPHVIAVSIGEDIASKVIAFSQQGPRAICVLSASGAVSTATLIQPSASPGAIKYEGRFEILALSTSYIVATDGSFRNRTGNLSVSLASPDGRVIGGAIGGPLIAASPVQVIVGSFIWAAPKIKSKKREEEASEVVQETDDHHVLDNNNNTISPVPQQQPNQNLIWSTGSRQMDMRHAHADIDLMRG”, the protein production result is on record as “failed”.
In the case of “MDRRRFIKGSMAMAAVCGTSGIASLFSQAAFAADSDIADGQTQRFDFSILQSMAHDLAQTAWRGAPRPLPDTLATMTPQAYNSIQYDAEKSLWHNVENRQLDAQFFHMGMGFRRRVRMFSVDPATHLAREIHFRPELFKYNDAGVDTKQLEGQSDLGFAGFRVFKAPELARRDVVSFLGASYFRAVDDTYQYGLSARGLAIDTYTDSKEEFPDFTAFWFDTVKPGATTFTVYALLDSASITGAYKFTIHCEKSQVIMDVENHLYARKDIKQLGIAPMTSMFSCGTNERRMCDTIHPQIHDSDRLSMWRGNGEWICRPLNNPQKLQFNAYTDNNPKGFGLLQLDRDFSHYQDIMGWYNKRPSLWVEPRNKWGKGTIGLMEIPTTGETLDNIVCFWQPEKAVKAGDEFAFQYRLYWSAQPPVHCPLARVMATRTGMGGFPEGWAPGEHYPEKWARRFAVDFVGGDLKAAAPKGIEPVITLSSGEAKQIEILYIEPIDGYRIQFDWYPTSDSTDPVDMRMYLRCQGDAISETWLYQYFPPAPDKRQYVDDRVMS” it was “failed”; in that of “MDRTHERVLQAMAENLGEGLPRAIPLLAEKAPGLLLEHGRSWTYAMPEKGALDEKTRTLILLGIALATGSEACVKAMAHRAKRLGLSKEALLETLKIARQAQANAVLGHAAPLLEVL”, “not failed”.
Then “MDSDPLGVFPNSPKYHPYYSQTTEFGGVIDLGLSLRTIQHEIYHSSGQIMTCGKGYCSNEGYRRKWGYVKVTMDGLVVGRKVCVLDHGSYSTLAHQLEDMFGMQSVSGLRLFQMESEFCLVYRDEEGLWRNAGDVPWNEFIESVERLRITRRNDAVLPF”, with “failed”.
“MDSGKSRSLETTVKRVYRDLLLPKINTSKKMSTLTNSPSSLEGTPGIKKNSGEMQAEASAERVKLTKSIKEKQNNELEKVALKRKADSEEKLVGKKEAKIMELDNQLVTTVPLPHIPLKNIMDVEMKLVYVDEEDVSYEFAQPNMCLGLQATGQTATTMPPASPRDLTTLPQIDKWLQVALKDASSCYRQKKYAVAAGQFRTALELCSKGAALGKPFEAHAEDIASIASFIETKLVTCYLRMRKPDLALNHAHRSIVLNPAYFRNHLRQAAVFRCLERYSEAARSAMIADYMFWLCGGSEHSVSKLIKLYWQAMIEEAITRAEAFSVMYTPFATRIKPENIEKVKEVFMRTHPTYVDCIYTDTQGLHVLPQTADWSCFPPQQYLLTLGFKNKEDGKFLEKVSSRKLPTYTEHKTPFSPLTREDTVRHMETVGKRILPILDFIRSTQLNGNFHACSGVMEKLHYASLLSRLQRVKEQAQVINQAMAELATVPYLQDISQQEAELLQSLMADAMDTLEGKKSDKERVWNTIQKVKF”: the protein production result was “failed”.
“MDSIQESDVLNAVKTKLPPCCLRIFRNKIILVGTYDLDKSTGYRSGSLDVFTMDLKLLCSNNTYGAILDLKLSPFDDTLICTAHSTGNIMLWRIRCTDKDDFQSNELDIHAIANLQLFEKDVLIASCHFSPLDCKKLLVTNTAGEAATIDIRTLSVQFTASAIAQAYSKLDKIDYEVQGATEKVIHVESGQFLKPHELECWTAEFGSLQPFQDVVFTGGDDSRIMAHDLRSKEFIWSNNRIHDAGVVSIKCSQPNFRNNKPTSIITGSYDDNIRSLDLRMMGESIFPGANVPTVNKLACDLGGGVWRFVESPIDQEQSHHNGSDRLLVCCMYNGAKVVTMNDNSDEYFQIQHYLKKGHDSMCYGGDWSNSLIATCSFYDNSLQTWIV”: the protein production entry was “failed”.
Then “MDSLVASYASSDEEEDLQPRREAFTVKSSEPSASSLFSAIPQPKELKSSEDGDLGSSSSRGKSSSFLSSLPPPKSSISRKKNPNPSSIPKRVVQIRLPVNPRPSNLDDEDDEEEEKARKKRKQMESASASHDSSVRSFLSAMPAPKSSQTLGALPSLGSGSGRRSNLETETPSIAFPQTDSGISDQQNQSYESFSHSNSETEQIVGVDNYYATGYDGGYETIPSGSSVGYDGSSYGGNTWNGGGFEAMTGLPEAVVAMDSGARRGRRGRNQMPEIVEVKQDELMKNRPRVDQVKSTGIAFGPAYQPVTSSSKGKVSKLHKRKHQITALFMDMKHKESELTERRSRGLLTKAETQAKYGW”, with “failed”; and “MDSMILGRYIPGDSIVHRLDPRSKLLAMMLLILIVFWANNPLTNLILFIATGIFIALSGVSLSFFIQGLKSMFFLIAFTTIFQLFFISNGNVLFEFSFVRITDYALQQAGIIFCRFVLIIFFSTLLTLTTMPLSLASAVEALLAPLKRVKVPVHEIGLMLSMSLRFVPTLMDDTTRIMNAQKARGVDFGEGSIVQKVKAMIPILIPLFATSLKRADSLAIAMEARGYQGGKGRSQYRQLKWTLKDTLTILVILVLGCCLFFLKS”, with “failed”.
For the sequence “MDSMKLYDAIIGTVEKHIAPIAAKVGNQPHVRAMRDGFIVAMPFIIVGSFILIFAFPPFAEDTTFTFGRLWLDFATTHFDTIMMPFNMSMGIMTIFVSLGVAYSLAKAYKMDGITSAVLSLMCFLLVAAPAQDGSLAMKHMGGTGIFTAVMCAFFAVELYRFMKKHNITIRMPEQVPPAIARSFEVLLPVLAVFVTLYPLSIFVQTQYDMLIPDAVMAMFKPLISASNTLPAIIGALLMCQLLWFAGIHGAAIVVGLLSPIFLTNISGNIDAFVAGQPVPNIFTQPFWDFYIFIGGSGATLALVLLMSFSRSVHLKSIGRMSAVPGFFQINEPVIFGSPIVMNPTLFIPFVFAPVINATIAYFAVHLGFVGMGVATTPWTTPAIIGASWGSGWTFSPVLLVVGLLILDLLIYFPFFKMFEKQMLEQELPTTKETKQAEQPAGEGVTA”, the protein production result was “failed”.
On to “MDSNTFVSTNIKKERNVDSVLSKGKPVSILLMGTDTGELGRNWVGRTDSMILVIINPKTKKTLLMSIPRDSMVSIPGYEYTFPQKINAAYEYPANGKGHPETSIKTVEKWLNVPIDFYGIVNMEALEQITNKAGGISVKSPLTFTFSEDTAHDYGNNLYTFTKGSTKYKYYKNGSTLTKTSNIMNGAAALAFTRMRYNDPLGDYGRTLRQRLVFEAIAKKATVLIPQIVNKKFLNSISKQGKTDLTFNDMVTLASNYRKALKNIKSDSVQGTDYEYSGISYQVVASKEKQRVTNKIRKFLGLKKAKSGPLYASKVTNGVVILEHHHHHH”, for which the protein production entry is reported as “failed”.
In the case of “MDSRKALDGLAVTLMIILCLTWGLQQVALKATSAEIAPLMQIAIRSGISALLVGIMMAVRGERLSLAGGMWRPGLAVGFLFALEYLLVGEGLRHTTASHMVIFLYTAPVFAAIGLHLKLRSERLRPVQWFGIALAFGGIVVSFYGRGGHTASLSVASVIWGDVLGLAAGMAWGMTTVVIRTSRLAACSATQTLLFQLLGAFILLLPAAAVLDQTYFNPTRLGWACLIFQTLIVSFASFLVWFWLLRHYVASRLGVLSFMTPLFGVALGAWLLNEPLERGFLAGALLVLTGIILVSGHGWLRQLGNGAGAAVQEQAREPDLP” it was “failed”; in that of “MDSVVSDVSDLVEPDEELKAWQTDRTRAPIATKIVVAGGFGAGKTTLVTAVSEITPLQTEALMTQASEDTDDLTGTPDKLTTTVAMDFGRITLDDDLVLYLFGTPGQQRFWFMWDDLVRGAIGAVVLADTRRLSDCFPALDYFESCGLPYVVAVNHFDGSEKFEPEDVREALTVPAHIPVMIMDARRRISVIETLLALVGHALEVSPELEHHHHHH”, “not failed”; in that of “MDTELMKLDVHVTAWSRTPSSSGFLNSVMISRDRDFEEFIINDRDGSVTSLGSYQNPSRGPDPLIFLDFRNFEPNYVYQLLLSQFHDHVLSEHIADQIGYTFGTCNSPTSTTDLDQESEEEE”, “failed”.
Then “MDTLEPTAVDTHVSAEQILRDVYKKGQKARGSTNIDILDLEELREYQRRKRTEYEGYLKRNRLDMGQWIRYAQFEIEQHDMRRARSIFERALLVDSSFIPLWIRYIDAELKVKCINHARNLMNRAISTLPRVDKLWYKYLIVEESLNNVEIVRSLYTKWCSLEPGVNAWNSFVDFEIRQKNWNGVREIYSKYVMAHPQMQTWLKWVRFENRHGNTEFTRSVYSLAIDTVANLQNLQIWSDMEVAKLVNSFAHWEAAQQEYERSSALYQIAIEKWPSNQLLKAGLLDFEKQFGDINSIEETISYKRKMEYETILSNNAYDYDTWWLYLDLISESFPKQIMQTFEKAIVDSRPKELSKNVQWKRYIYLWMRYICYVELELENSLLEEELFQRLIDDIIPHKHFTFSKIWLMYAKFLIRHDDVPKARKILGKAIGLCPKAKTFKGYIELEVKLKEFDRVRKIYEKFIEFQPSDLQIWSQYGELEENLGDWDRVRGIYTIALDENSDFLTKEAKIVLLQKYITFETESQEFEKARKLYRRYLELNQYSPQSWIEFAMYQTSTPTEQQLLDLAKLQSENVDEDIEFEITDENKLEARKVFEEAIVFFKEKDDKQGRLSILEALKDYEETYGTELDQETVKKRFPKVIKKVRLQNGVEEEFVDYIFPDDIDDDKPKPSKFLELAKKWKQEQAL”, with “failed”; and “MDTLQFQKNPETAAKMSAYMKHQFVFAGIPAPERQALSKQLLKESHTWPKEKLCQEIEAYYQKTEREYQYVAIDLALQNVQRFSLEEVVAFKAYVPQKAWWDSVDAWRKFFGSWVALHLTELPTIFALFYGAENFWNRRVALNLQLMLKEKTNQDLLKKAIIYDRTTEEFFIQKAIGWSLRQYSKTNPQWVEELMKELVLSPLAQREGSKYLAKASE”, with “not failed”.
In the case of “MDTMRSLRFISAEALVSHPQVARQSLDSVAHNLYPLLFKASYLLEQAEVTRAVLGRWPLEEFRLGALLGPGADHPQDLRDRTCRACLEALVRGLADHVLQDRSRRRLRVADLTGIRDVQVQRCPCGRALGRWGRTQLLARTCCELQAEPLAAGRPVEVLADLFVTEGNFEAVVQALRPAGPAPLRVHCPSFRADSLSPSQLLHVLRLAGPGALRKLEVVHNVRLHAGHVQQLLAQVGFPRLASLTLPTKAFDAPPTYASTPDGEDPLLASIARELSKMAQLTELSVAFSTLTGKIPTLLGPLQTPLRVLDLANCALNHTDMAFLADCAHAAHLEVLDLSGHNLVSLYPSTFFRLLSQASRTLRILTLEECGIVDSHVGMLILGLSPCHRLRQLKFLGNPLSARALRRLFTALCELPELRCIEFPVPKDCYPEGAAYPQDELAMSKFNQQKYDEIAEELRAVLLRADREDIQVSTPLFGSFDPDIQETSNELGAFLLQAFKTALENFSRALKQIE” it was “failed”.
